Publication PMC10682421

B1: human cystatin C (wild type) (natural protein)
chain: SSPGKPPRLVGGPMDASVEEEGVRRALDFAVGEYNKASNDMYHSRALQVVRARKQIVAGVNYFLDVELGRTTCTKTQPNLDNCPFHDQPHLKRKAFCSFQIYAVPWQGTMTLSKSTCQDA
modifications: 2H-labelled (deuterated) in D-HCC; protonated in H-HCC

What was measured:
[1] = target: amyloid beta peptide Aβ 1–42 (fibrils)
[2] = target: amyloid beta peptide Aβ 3–28 (fibrils)

Row | Molecule | decrease of SANS scattering intensity at q < 0.01 between the beginning (300 s) and the end of the kinetic experiment (fibril disaggregation; 37 °C, deuterated HCC 1 mg/mL) [1] | decrease of SANS scattering intensity at q < 0.01 between the beginning (300 s) and the end of the kinetic experiment (fibril disaggregation; 37 °C, deuterated HCC 1 mg/mL, 1–10 h) [2]
1 | human cystatin C (wild type) (from UniProt P01034 27-146) (natural protein) | 4% | 
2 | B1 |  | > 70%
